Paper PMC9464592 (Nature, 2022)

Experiments:
Assay in all cases: SEC
WDR24 ∆CTD = target: T1, WDR24 ∆CTD (human, UniProt Q96S15 1-700)
T1 sequence (looked up): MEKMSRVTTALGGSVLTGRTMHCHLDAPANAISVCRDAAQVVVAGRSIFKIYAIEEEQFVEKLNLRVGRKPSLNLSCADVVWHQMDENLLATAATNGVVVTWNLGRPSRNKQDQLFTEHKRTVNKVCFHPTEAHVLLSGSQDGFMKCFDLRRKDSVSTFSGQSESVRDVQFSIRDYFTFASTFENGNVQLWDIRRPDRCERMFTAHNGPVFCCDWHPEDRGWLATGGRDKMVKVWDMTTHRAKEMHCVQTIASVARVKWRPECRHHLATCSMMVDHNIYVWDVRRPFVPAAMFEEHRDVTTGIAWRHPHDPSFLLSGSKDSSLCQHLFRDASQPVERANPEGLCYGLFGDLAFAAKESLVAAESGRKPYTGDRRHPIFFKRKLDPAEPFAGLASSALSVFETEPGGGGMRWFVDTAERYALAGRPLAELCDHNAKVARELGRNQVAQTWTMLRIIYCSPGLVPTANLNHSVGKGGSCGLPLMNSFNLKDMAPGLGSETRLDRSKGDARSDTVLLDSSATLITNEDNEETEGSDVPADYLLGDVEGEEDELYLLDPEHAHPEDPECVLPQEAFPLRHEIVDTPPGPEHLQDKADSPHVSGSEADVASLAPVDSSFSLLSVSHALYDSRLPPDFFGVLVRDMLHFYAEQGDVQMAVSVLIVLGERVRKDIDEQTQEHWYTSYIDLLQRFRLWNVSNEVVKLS

WDR59 ∆CTD = target: T2, WDR59 ∆CTD (human, UniProt Q6PJI9 1-890)
T2 sequence (looked up): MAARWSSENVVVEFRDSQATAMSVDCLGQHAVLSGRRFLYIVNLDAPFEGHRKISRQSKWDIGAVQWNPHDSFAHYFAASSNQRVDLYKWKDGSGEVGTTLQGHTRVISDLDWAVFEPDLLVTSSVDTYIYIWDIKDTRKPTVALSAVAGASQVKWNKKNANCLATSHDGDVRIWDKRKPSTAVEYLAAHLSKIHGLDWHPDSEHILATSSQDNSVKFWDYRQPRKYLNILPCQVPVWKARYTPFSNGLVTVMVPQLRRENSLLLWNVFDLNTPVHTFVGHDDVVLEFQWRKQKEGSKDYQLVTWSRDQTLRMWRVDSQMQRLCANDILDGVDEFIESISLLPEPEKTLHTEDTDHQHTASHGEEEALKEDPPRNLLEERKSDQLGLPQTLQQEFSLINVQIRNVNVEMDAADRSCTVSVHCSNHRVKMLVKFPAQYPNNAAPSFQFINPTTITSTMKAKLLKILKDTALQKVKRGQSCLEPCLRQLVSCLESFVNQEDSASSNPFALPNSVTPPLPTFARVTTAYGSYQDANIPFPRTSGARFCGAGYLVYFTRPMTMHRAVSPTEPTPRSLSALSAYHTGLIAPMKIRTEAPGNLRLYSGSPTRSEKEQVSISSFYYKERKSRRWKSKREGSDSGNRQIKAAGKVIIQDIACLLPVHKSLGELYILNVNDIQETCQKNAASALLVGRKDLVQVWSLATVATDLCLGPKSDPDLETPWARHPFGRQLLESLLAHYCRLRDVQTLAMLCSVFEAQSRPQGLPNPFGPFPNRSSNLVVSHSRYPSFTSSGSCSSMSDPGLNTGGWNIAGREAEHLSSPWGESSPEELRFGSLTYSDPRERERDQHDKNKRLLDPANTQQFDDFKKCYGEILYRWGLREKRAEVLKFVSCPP

MIOS A560E = target: T3, MIOS A560E (human, UniProt Q9NXC5 1-875, A560E)
T3 sequence: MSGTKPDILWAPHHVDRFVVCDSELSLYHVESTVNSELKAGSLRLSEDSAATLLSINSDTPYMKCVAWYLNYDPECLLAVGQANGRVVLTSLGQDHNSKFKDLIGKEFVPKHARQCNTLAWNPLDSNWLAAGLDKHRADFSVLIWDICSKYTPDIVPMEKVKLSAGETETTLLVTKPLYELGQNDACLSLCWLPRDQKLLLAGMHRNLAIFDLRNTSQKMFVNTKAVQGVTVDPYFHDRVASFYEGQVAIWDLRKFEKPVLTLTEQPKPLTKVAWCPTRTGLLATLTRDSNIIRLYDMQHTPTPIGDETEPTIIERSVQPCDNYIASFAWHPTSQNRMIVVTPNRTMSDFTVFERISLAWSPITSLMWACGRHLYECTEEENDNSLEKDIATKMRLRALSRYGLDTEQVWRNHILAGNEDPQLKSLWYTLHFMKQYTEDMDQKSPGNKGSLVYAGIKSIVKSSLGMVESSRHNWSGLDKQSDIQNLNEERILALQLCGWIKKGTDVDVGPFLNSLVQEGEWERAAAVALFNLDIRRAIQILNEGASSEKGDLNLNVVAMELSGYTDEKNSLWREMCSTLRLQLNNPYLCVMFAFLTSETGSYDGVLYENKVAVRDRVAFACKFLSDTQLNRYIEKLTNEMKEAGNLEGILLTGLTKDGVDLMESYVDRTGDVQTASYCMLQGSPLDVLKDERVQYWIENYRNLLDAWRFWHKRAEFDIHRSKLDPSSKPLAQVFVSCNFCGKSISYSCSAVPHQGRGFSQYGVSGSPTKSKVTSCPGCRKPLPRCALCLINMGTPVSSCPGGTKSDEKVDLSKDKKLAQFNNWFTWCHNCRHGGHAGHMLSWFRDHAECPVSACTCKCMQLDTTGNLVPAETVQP

Measured: binding result

B1: tag-free SEC13 (natural protein, human)
chain: MVSVINTVDTSHEDMIHDAQMDYYGTRLATCSSDRSVKIFDVRNGGQILIADLRGHEGPVWQVAWAHPMYGNILASCSYDRKVIIWREENGTWEKSHEHAGHDSSVNSVCWAPHDYGLILACGSSDGAISLLTYTGEGQWEVKKINNAHTIGCNAVSWAPAVVPGSLIDHPSGQKPNYIKRFASGGCDNLIKLWKEEEDGQWKEEQKLEAHSDWVRDVAWAPSIGLPTSTIASCSQDGRVFIWTCDDASSNTWSPKLLHKFNDVVWHVSWSITANILAVSGGDNKVTLWKESVDGQWVCISDVNKGQGSVSASVTEGQQNEQ
binds: all assays above
